According to patent US20250002588A1 (DIAGONAL THERAPEUTICS, published 2025):
Changes are numbered by the printed parent chain. Read-outs that look alike come from different tables or passages of the source.

B1: DGL267 (bispecific antibody)
chain 1: EVQLLESGGGLVQPGGSLRLSCAASGFTFSSYAMSWVRQAPGKGLEWVANINQDGSEKNYVDSMRGRFTISRDNSKNTLYLQMNSLRAEDTAVYYCAREFDYWGQGTLVTVTSSGGGGSGGGGSGGGGSQSVLAQPPSASGTPGQRVTISCSGSSSNIGSNYVYWYQQLPGTAPKLLIYGNNKRPSGVPDRFSGSKSGTSASLAISGLRSEDEADYYCAAWDDSLNGRVFGGGTKLTVLGGGGSGGGGSGGGGSGVECPPCPAPPVAGPSVFLFPPKPKDTLMISRTPEVTCVVVDVSHEDPEVQFNWYVDGVEVHNAKTKPREEQFNSTFRVVSVLTVVHQDWLNGKEYKCKVSNKGLPAPIEKTISKTKGQPREPQVYTLPPCREEMTKNQVSLWCLVKGFYPSDIAVEWESNGQPENNYKTTPPMLDSDGSFFLYSKLTVDKSRWQQGNVFSCSVMHEALHNHYTQKSLSLSPG
chain 2: EVQLLESGGGLVQPGGSLRLSCAASGFTFSDYYMTWIRQAPGKGLEWVSSISGGSTYYADSRKGRFTISRDNSENTLYLQMNSLRAEDTAVYYCARDFGVAGWFGQYGMDVWGQGTLVTVSSGGGGSGGGGSGGGGSQSVLTQPPSASGTPGQRVTISCTGSSSNIGAGYDVHWYQQLPGTAPKLLIYRSNQRPSGVPDRFSGSKSGTSASLAISGLRSEDEADYYCSSYAGNYNLVFGGGTKLTVLGGGGSGGGGSGGGGSGVECPPCPAPPVAGPSVFLFPPKPKDTLMISRTPEVTCVVVDVSHEDPEVQFNWYVDGVEVHNAKTKPREEQFNSTFRVVSVLTVVHQDWLNGKEYKCKVSNKGLPAPIEKTISKTKGQPREPQVCTLPPSREEMTKNQVSLSCAVKGFYPSDIAVEWESNGQPENNYKTTPPMLDSDGSFFLVSKLTVDKSRWQQGNVFSCSVMHEALHNHYTQKSLSLSPG
B2: DGL642 (bispecific antibody)
chain 1: EVQLLESGGGLVQPGGSLRLSCAASGFTFSNAWMNWVRQAPGKGLEWVSSISSSSSYIYYADSVKGRFTISRDNSKNTLYLQMNSLRAEDTAVYYCARSNGSGGSTYPLDLWGQGTLVTVTSSGGGGSGGGGSGGGGSQSVLTQPPSASGTPGQRVTISCSGSRSNIGSNSVHWYQQLPGTAPKLLIYGNSNRPSGVPDRFSGSKSGTSASLAISGLRSEDEADYYCQSYDSSLNDHVVFGGGTKLTVLDKTHTCPPCPAPEAAGAPSVFLFPPKPKDTLMISRTPEVTCVVVDVSHEDPEVKFNWYVDGVEVHNAKTKPREEQYNSTYRVVSVLTVLHQDWLNGKEYKCKVSNKALPAPIEKTISKAKGQPREPQVCTLPPSRDELTKNQVSLSCAVKGFYPSDIAVEWESNGQPENNYKTTPPVLDSDGSFFLVSKLTVDKSRWQQGNVFSCSVMHEALHNHYTQKSLSLSPGWSHPQFEK
chain 2: not shown
B3: DGL643 (bispecific antibody)
chain 1: B2 chain 1 with T106D
chain 2: not shown
B4: DGL650 (bispecific antibody)
chain 1: EVQLLESGGGLVQPGGSLRLSCAASGFTFSLAWMNWVRQAPGKGLEWVSSISSSTSYIYYADSVKGRFTISRDNSKNTLYLQMNSLRAEDTAVYYCARAVAAGGFFWGLDQWGQGTLVTVTSSGGGGSGGGGSGGGGSQSVLTQPPSASGTPGQRVTISCSGSRSNIGSNSVHWYQQLPGTAPKLLIYGNSNRPSGVPDRFSGSKSGTSASLAISGLRSEDEADYYCQSYDSSLNDHVVFGGGTKLTVLDKTHTCPPCPAPEAAGAPSVFLFPPKPKDTLMISRTPEVTCVVVDVSHEDPEVKFNWYVDGVEVHNAKTKPREEQYNSTYRVVSVLTVLHQDWLNGKEYKCKVSNKALPAPIEKTISKAKGQPREPQVCTLPPSRDELTKNQVSLSCAVKGFYPSDIAVEWESNGQPENNYKTTPPVLDSDGSFFLVSKLTVDKSRWQQGNVFSCSVMHEALHNHYTQKSLSLSPGWSHPQFEK
chain 2: not shown
B5: DGL646 (bispecific antibody)
chain 1: B4 chain 1 with L31N, T55S, A101G, G103S, G104T, F105V, F106Y, W107F
chain 2: not shown

Legend:
[1] = biological target: T1, ALK-1/BMPR-2 receptor pair of the PathHunter U2Os dimerization cells (DiscoverX 93-0962C3) (UniProt P37023 22-503; Q13873 27-1038); assay: cell-based or functional assay
T1 sequence (P37023 22-503, chain 1 of 2): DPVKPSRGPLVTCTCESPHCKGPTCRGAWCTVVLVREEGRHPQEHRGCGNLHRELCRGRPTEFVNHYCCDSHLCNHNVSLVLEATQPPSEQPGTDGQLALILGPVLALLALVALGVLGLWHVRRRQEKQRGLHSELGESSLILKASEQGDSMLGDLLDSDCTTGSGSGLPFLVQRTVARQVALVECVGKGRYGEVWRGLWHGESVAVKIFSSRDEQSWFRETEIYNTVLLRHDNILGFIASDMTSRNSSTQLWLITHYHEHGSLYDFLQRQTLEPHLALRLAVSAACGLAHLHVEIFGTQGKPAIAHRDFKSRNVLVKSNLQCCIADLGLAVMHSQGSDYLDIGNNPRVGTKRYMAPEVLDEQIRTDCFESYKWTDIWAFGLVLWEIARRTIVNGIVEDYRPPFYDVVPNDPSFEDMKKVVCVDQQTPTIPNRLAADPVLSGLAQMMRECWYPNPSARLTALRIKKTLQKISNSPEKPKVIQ
T1 sequence (Q13873 27-1038, chain 2 of 2): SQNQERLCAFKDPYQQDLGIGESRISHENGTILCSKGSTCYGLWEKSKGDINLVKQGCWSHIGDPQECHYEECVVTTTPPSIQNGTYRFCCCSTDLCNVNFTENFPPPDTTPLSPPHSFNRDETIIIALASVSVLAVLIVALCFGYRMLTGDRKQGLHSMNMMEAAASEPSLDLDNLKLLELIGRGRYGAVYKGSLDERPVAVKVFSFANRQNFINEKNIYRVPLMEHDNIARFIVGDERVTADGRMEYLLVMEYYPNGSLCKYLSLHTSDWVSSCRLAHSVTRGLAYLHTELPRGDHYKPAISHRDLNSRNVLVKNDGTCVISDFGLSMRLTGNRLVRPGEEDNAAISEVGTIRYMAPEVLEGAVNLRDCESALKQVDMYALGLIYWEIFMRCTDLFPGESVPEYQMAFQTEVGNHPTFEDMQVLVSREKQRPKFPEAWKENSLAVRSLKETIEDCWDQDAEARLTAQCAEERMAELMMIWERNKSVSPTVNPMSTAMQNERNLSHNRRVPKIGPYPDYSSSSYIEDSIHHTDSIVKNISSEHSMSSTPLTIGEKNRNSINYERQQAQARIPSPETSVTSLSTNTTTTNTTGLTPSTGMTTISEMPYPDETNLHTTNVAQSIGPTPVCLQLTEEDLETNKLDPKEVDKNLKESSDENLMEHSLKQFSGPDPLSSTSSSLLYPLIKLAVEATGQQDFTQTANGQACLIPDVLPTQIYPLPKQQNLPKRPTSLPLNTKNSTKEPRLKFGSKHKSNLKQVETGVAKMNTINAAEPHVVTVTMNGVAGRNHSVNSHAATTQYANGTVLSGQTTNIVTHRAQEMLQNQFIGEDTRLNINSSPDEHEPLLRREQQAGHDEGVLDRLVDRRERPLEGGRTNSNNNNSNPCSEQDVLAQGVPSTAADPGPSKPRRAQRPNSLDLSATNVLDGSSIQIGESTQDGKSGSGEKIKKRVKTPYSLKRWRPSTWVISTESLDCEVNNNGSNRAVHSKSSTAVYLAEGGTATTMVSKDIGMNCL

[2] = biological target: human ALK1 protein (Sino Biological, #10066-H08H) (human, UniProt P37023 22-118); assay: ELISA, coated human ALK1
Sequence of human ALK1 protein (Sino Biological, #10066-H08H) (P37023 22-118 limits assumed): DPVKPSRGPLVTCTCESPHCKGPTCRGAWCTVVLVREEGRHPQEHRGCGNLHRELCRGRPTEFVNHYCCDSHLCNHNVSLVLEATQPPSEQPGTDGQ
Protocol: These binders were then tested using an ELISA assay. High binding plates (Corning, 9018) were coated with either 2 μg/ml of human BMPRII protein (Sino Biological, #10551-H08H) or 2 μg/ml of human ALK1 protein (Sino Biological, #10066-H08H) overnight at 4C. The plates were then washed three times with wash buffer (R&D Systems, WA126). […] The plates were then washed three times with wash buffer and DGL antibodies or controls, which were diluted with PBS and 0.1% BSA. The antibodies were incubated for one hour at room temperature and then the plates were washed three times with wash buffer. The plates were then incubated with mouse anti-human IgG Fc secondary—HRP (diluted with PBS/0.1% BSA); 100 ul per well at 2 μg/ml and incubated at room temperature for one hour. The plate was washed three times in wash buffer and then 100 ul TMB (R&D Systems, DY9998B, substrate reagent pack). After the wells turn blue, 50 ul of stop solution (R&D Systems, DY994) was added to each well and the absorbance of the plate was read at 450 nm. results can be found in Table 8.

[3] = biological target: T1, ALK-1/BMPR-2 receptor pair of the …; assay: cell-based or functional assay; remark: listed apart in the source

| Binder | % Emax BMP9 [1] | EC50 [1] | Emax (RLU) [1] | Abs450 1 nM [2] | Abs450 10 nM [2] | Abs450 100 nM [2] | % Emax BMP9 [3] | Emax (RLU) [3] |
| --- | --- | --- | --- | --- | --- | --- | --- | --- |
| B1 | 46% | 0.9 nM | 1.23e+06 RLU | – | – | – | – | – |
| B2 | – | – | – | 0.08 | 0.09 | 0.5 | 14% | 255000 RLU |
| B3 | – | – | – | 0.04 | 0.13 | 0.71 | 13% | 246000 RLU |
| B4 | – | – | – | 0.08 | 0.15 | 0.65 | 43% | 801000 RLU |
| B5 | – | – | – | 0.06 | 0.15 | 0.8 | 18% | 333000 RLU |
